Source: article PMC12713027

Biological target: NAA15-mCherry (rice (Oryza sativa, japonica cultivar Zhonghua 11))
Assay: FRET or BRET; FLIM-FRET in rice protoplasts, donor NAA10-eGFP and acceptor NAA15-mCherry co-expressed with pRTV-RESIS, 16 h after transfection

## NAA10-eGFP (natural protein)
  mean fluorescence lifetime of the donor (co-expressed with RESIS): 2.45 ns
